Laboratory results from US20250237662A1.

B1: rabbit anti-human IgG monoclonal antibody clone 11G5 (antibody, V domains shown)
VH: QSLEESGGDLVKPGASLTLTCTASGFSFSSSYYMCWVRQAPGKRLEWIACIYGGGLSNTYYAGWAKGRFTISKTSSTTVTLQMTSLTAADTATYFCARDATSGDYLNLWGPGTLVTVSS
VL: AVVMTQTASPVSGAVGGTVTINCQASQSISASALSWYQQKPGQPPKLLIYAASTLESGVPSRFKGSGSGTQFTLTISGVQCDDAATYYCAYDGYRLSSADNIFGGGTEVVVKG
B2: rabbit anti-human IgG monoclonal antibody clone 2C5 (antibody, V domains shown)
VH: QEQLVESGGDLVKPGASLTLTCTASGFSFSSGYYMCWVRQAPGKGLEWIACIYGGALTNTYYATWAKGRFTISKTSSTTVTLQMTSLTAADTATYFCARDLGAAGDAYNLWGPGTLVTVSS
VL: ASDMTQTPASVSAAVGGTVTIKCQASESIYSGLAWYQQKPGQPPKLLIFDASDLASGVPSRFKGSRSETEYTLTISDLECADAATYYCQCTDRNSITSYAFGGGTEVVVKG

Tests used:
[1] = biological target: humanized development candidate monoclonal antibody IgG4 (hIgG4); assay: Gyrolab, mAb as capture, hIgG4 40 ng/ml, against the blank
[2] = biological target: humanized development candidate monoclonal antibody IgG4 (hIgG4); assay: ELISA, medium of transfected HEK293F; signal on hIgG4 over signal on cynoIgG
[3] = biological target: humanized therapeutic monoclonal antibody IgG1 (hIgG1); assay: direct ELISA, hIgG1 coated, B-cell culture medium
[4] = biological target: humanized development candidate monoclonal antibody IgG4 (hIgG4); assay: Gyrolab, mAb as capture, hIgG4 200 ng/ml
[5] = biological target: drug: a monoclonal antibody of human IgG4 isotype (PandA assay); assay: PandA assay, monkey matrix, mAb 1 ug/ml
[6] = biological target: humanized development candidate monoclonal antibody IgG4 (hIgG4); assay: Gyrolab, mAb as capture, hIgG4 5000 ng/ml
[7] = biological target: humanized development candidate monoclonal antibody IgG4 (hIgG4); assay: Gyrolab, mAb as capture, hIgG4 1.6 ng/ml, against the blank
[8] = biological target: drug: a monoclonal antibody of human IgG4 isotype (PandA assay); assay: PandA assay, mAb 0.75 ug/ml in monkey plasma
[9] = biological target: cynomolgus monkey IgG (cynoIgG); assay: direct ELISA, cynoIgG coated (hIgG1/CynoIgG screen), B-cell culture medium
[10] = biological target: drug: a monoclonal antibody of human IgG4 isotype (PandA assay); assay: PandA assay, monkey matrix, mAb 0.75 ug/ml
[11] = biological target: drug: a monoclonal antibody of human IgG4 isotype (PandA assay); assay: PandA assay (PEG precipitation, acid dissociation, MSD plate, sulfo-TAG-drug), mAb 5 ug/ml in monkey plasma
[12] = biological target: humanized development candidate monoclonal antibody IgG4 (hIgG4); assay: direct ELISA, hIgG4 coated, B-cell culture medium
[13] = biological target: humanized development candidate monoclonal antibody IgG4 (hIgG4); assay: SPR (Biacore T200), mAb captured by anti-rabbit mAb on CM5, antigen 80-0 nM, 1:1 fit
[14] = biological target: humanized therapeutic monoclonal antibody IgG1 (hIgG1); assay: as above
[15] = biological target: internal research reagent human Fab (hFab); assay: as above
[16] = biological target: humanized therapeutic monoclonal antibody IgG1 (hIgG1); assay: ELISA, medium of transfected HEK293F; signal on hIgG1 over signal on cynoIgG
[17] = biological target: humanized development candidate monoclonal antibody IgG4 (hIgG4); assay: Gyrolab, mAb as capture, hIgG4 1000 ng/ml, against the blank
[18] = biological target: humanized development candidate monoclonal antibody IgG4 (hIgG4); assay: Gyrolab, mAb as capture, hIgG4 8 ng/ml, against the blank
[19] = biological target: drug: a monoclonal antibody of human IgG4 isotype (PandA assay); assay: PandA assay, monkey matrix, mAb 5 ug/ml
[20] = biological target: humanized development candidate monoclonal antibody IgG4 (hIgG4); assay: Gyrolab, mAb as capture, hIgG4 0.32 ng/ml, against the blank
[21] = biological target: humanized development candidate monoclonal antibody IgG4 (hIgG4); assay: Gyrolab, mAb as capture, hIgG4 1000 ng/ml
[22] = biological target: drug: a monoclonal antibody of human IgG4 isotype (PandA assay); assay: PandA assay, signal to noise against the negative control
[23] = biological target: humanized development candidate monoclonal antibody IgG4 (hIgG4); assay: Gyrolab, mAb as capture, hIgG4 1.6 ng/ml
[24] = biological target: humanized development candidate monoclonal antibody IgG4 (hIgG4); assay: Gyrolab, mAb as capture, hIgG4 5000 ng/ml, against the blank
[25] = biological target: humanized development candidate monoclonal antibody IgG4 (hIgG4); assay: Gyrolab, mAb as capture, hIgG4 8 ng/ml
[26] = biological target: humanized development candidate monoclonal antibody IgG4 (hIgG4); assay: Gyrolab, mAb as capture, hIgG4 0.32 ng/ml
[27] = biological target: drug: a monoclonal antibody of human IgG4 isotype (PandA assay); assay: PandA assay, monkey matrix, mAb 0.5 ug/ml
[28] = biological target: drug: a monoclonal antibody of human IgG4 isotype (PandA assay); assay: PandA assay, mAb 1 ug/ml in monkey plasma
[29] = biological target: humanized development candidate monoclonal antibody IgG4 (hIgG4); assay: Gyrolab, mAb as capture, hIgG4 40 ng/ml
[30] = biological target: cynomolgus monkey IgG (cynoIgG); assay: direct ELISA, cynoIgG coated (hIgG4/CynoIgG screen), B-cell culture medium
[31] = biological target: humanized development candidate monoclonal antibody IgG4 (hIgG4); assay: Gyrolab, mAb as capture, hIgG4 200 ng/ml, against the blank
[32] = biological target: drug: a monoclonal antibody of human IgG4 isotype (PandA assay); assay: PandA assay, mAb 0.5 ug/ml in monkey plasma

| Binder | S/B [1] | ELISA signal ratio hIgG4/CynoIgG [2] | OD450 [3] [OD450] | Av. Resp. [4] | S/N (monkey) [5] | Av. Resp. [6] | S/B [7] | ECL Signal [8] | OD450 [9] [OD450] | S/N (monkey) [10] | ECL Signal [11] | OD450 [12] [OD450] | Kd [13] [nM] | koff [13] [s⁻¹] | kon [13] [M⁻¹ s⁻¹] | Kd [14] [nM] | koff [14] [s⁻¹] | kon [14] [M⁻¹ s⁻¹] | Kd [15] [nM] | koff [15] [s⁻¹] | other results |
| --- | --- | --- | --- | --- | --- | --- | --- | --- | --- | --- | --- | --- | --- | --- | --- | --- | --- | --- | --- | --- | --- |
| B1 | 8.2 | 5.19 | 1.25 | 184 | 2.4 | 468 | 1.3 | 257 | 0.161 | 1.92 | 1550 | 1.32 | 0.0429 | 5.8e-06 | 135000 | 0.187 | 2.52e-05 | 135000 | 0.591 | 0.000531 | kon [15]: 899000 M⁻¹ s⁻¹; ELISA signal ratio hIgG1/CynoIgG [16]: 4.94; S/B [17]: 53.1; S/B [18]: 2.7; S/N (monkey) [19]: 9.76; S/B [20]: 1; Av. Resp. [21]: 394; S/N [22]: 1.8; Av. Resp. [23]: 9.8; S/B [24]: 63.3; Av. Resp. [25]: 20.3; Av. Resp. [26]: 7.5; S/N (monkey) [27]: 1.58; ECL Signal [28]: 320; Av. Resp. [29]: 60.9; OD450 [30]: 0.159 OD450; S/B [31]: 24.8; ECL Signal [32]: 171 |
| B2 | 11.1 | 7.91 | 1.24 | 87.7 | 3.39 | 317 | 1.4 | 323 | 0.107 | 2.51 | 2180 | 1.29 | 0.1 | 1.36e-05 | 135000 | 0.277 | 3.8e-05 | 137000 | 0.55 | 0.00146 | kon [15]: 2.65e+06 M⁻¹ s⁻¹; ELISA signal ratio hIgG1/CynoIgG [16]: 7.72; S/B [17]: 110; S/B [18]: 3.2; S/N (monkey) [19]: 15.7; S/B [20]: 1; Av. Resp. [21]: 232; S/N [22]: 1.98; Av. Resp. [23]: 3; S/B [24]: 151; Av. Resp. [25]: 6.6; Av. Resp. [26]: 2.1; S/N (monkey) [27]: 1.93; ECL Signal [28]: 426; Av. Resp. [29]: 23.4; OD450 [30]: 0.124 OD450; S/B [31]: 41.7; ECL Signal [32]: 188 |
